Experimental data: the DeepSol protein solubility set

Assay: soluble on expression in E. coli; label from the status in PepcDB or PDB records

Sequence | soluble on expression in E. coli
MGSDKIHHHHHHMDDEIKKAITNYDDRPAMTKSTQKVFKNQQEMRTVLRDEVEVWQLIHQTDKQAEANIKPKLPPLAGARIMFRHFDFCLFSHDESERMAAYLPNDGIYTQNYRYLKRLIALMYPSYNLRQALDVIYHLEMMAPVRALTIDRYLVPVNNGIWNLHQHQLIPFSPKYVFTTKIATNYRDNATTPNIKGWTIDNWFDELACGDDEIVELLWEVINDCLNGNYTRKKAIFLFSELGNSGKGTFQELITNLVGMDNVGTLKVNEFDVRFRLAGLVGKTVCIGDDIAPDIYIKDSSNFNSVVTGDLVNIEFKGQDGYTSALRCTIVQSCNGLPNFHNKGGTMRRLVIVPFNNHFQGKGDNWSIRNDYITRKDVLEYVLYKALQLDFDKFSVPEVSKKALADFELDNNPLIGFKVSFFDKLKVDKVPTYYLYEYYKKYCSINGLKALGQSKFIRRFMTCVPLYEKKQAKLSATDINTLDVFKQQDEIIAWPREPLAGKKYNCIVQSTL | not soluble
MNATINDDDIDDVKKALDHATQAAHKAAAELTAKLRSDFVEYGNGGTAGQVLIHIYGPGLIYGFSAFPVQIRLEIPNQPVPFNKVHITEVTAYVIDENNRTYWTRVWNSSTFRQGGYIADTLDLVTVMKAPDPLVYQIRDAIVTGQISRELYDKIWNTSTTHFEIRVIVKGYQEAWKTDSSVSNQSSCPSDGHWYEDACWVHDKDIDFTLKAETTTAWGHVTGTNDVATIDGGMLGSLPIKFLQSLDLSGKWVLYQNKYAGALSDFIIITAASPVHVLNSTAMYKFLITPNPGYFQPANPKISDEYRFVTLRVIEGGRMELADTTTGHIGDLTEPTFFGLTAHYTDAPGTLDYHALGLVYAYVERDDGVKIPIWLAAEPMISVLSNTYTVMKDQDVKNLIDLYKKKDREKINATTKAMINSLQEKIDEAEQLLAKAKGMNNENAIEYAQGAIDEYKAAINDLQKAAQQDDYQMFLNYLNAAKKHEMAGDYYVNAARKALNGDLEQAKIDAEKAKEYSNLAKEYEPG | soluble
MSLSTARLPENAERNRFQDVLPYDDARVELVPTKENNTGYINASHIKVSVSGIEWDYIATQGPLQNTCQDFWQMVWEQGIAIIAMVTAEEEGGREKSFRYWPRLGSRHNTVTYGRFKITTRFRTDSGCYATTGLKMKHLLTGQERTVWHLQYTDWPEHGCPEDLKGFLSYLEEIQSVRRHTNSTSDPQSPNPPLLVHCSAGVGRTGVVILSEIMIACLEHNEVLDIPRVLDMLRQQRMMLVQTLCQYTFVYRVLIQFLKSSRLIEGHHHHHH | not soluble
MKDKKTISILGCGWLGLPLAEAFIQSGFRVKGSTTREERLSVIEAAGAEGYVLKADGGAWTGERLNDFLRCDILLIAIPPGTKRNANSTHAVEIGQLMDHIKKYSIAIKQLIYISSTSVYKNINSVVIESDTAIPSNIGNQILFQAEKHVHESVIERKLILRLGGLTGYDRMLGRFFAGKQELAGGNEPVNLVHRDDVVACILFLLKNGIGEQVFNICSPQHPSRKEFYTRLCDRFNLPEPH | not soluble
MSQAFAQPLSGYQIGDEIKNFSMLNVTNQTVLSLTDYNDQKVVVIIFTNNNCAYAKLYEQRIANLAKQYNTSGVAFLLVNPSVSNSDKFETIEAMRKKIQNDKSLYPYLADTTQSLAISFGVQRLPDAFVLKKMETSFRLVYKGSIDDNPQSAEDVSNRFLSDAISAMVLNRSIKVADTRAVGCLLKPY | not soluble
MGSDKIHHHHHHMVAYGELIREVRLSKGLTQKEVYTGVISKSYAIGFEKGKHDITLVLFEEILERVMLSSDEFFFMNRGYSLAEEDNFWYKFANAANQKSLADLQELYQEVLQQTGDRANLRKAIVHSRMEINEQFLLNNRFDVSIVSEKDKAVIQTYLWKVQSWTLEEIRIFANSVDYFEEDVQIYFFQLVLKSLEKYKHYDRGKKVFSTLLSNIIEELITRNQLEYAAQLLEILHELSSTHDCAFYRIMHNYYQGLIWMKNDQVEQGLKESKSAIRILDVLDYKSLAQLYNTLLQQFLEKENIQIV | not soluble
MTKVTREEVEHIANLARLQISPEETEEMANTLESILDFAKQNDSADTEGVEPTYHVLDLQNVLREDKAIKGIPQELALKNAKETEDGQFKVPTIMNEEDALEHHHHHH | not soluble
MGHHHHHHSHMEKSELKPAGVFHFFNEICQVPRPSKKEEKMIAYLKAFGEKHNLETKVDEAGNVLIKKPATPGKENLKTVILQSHVDMVCEKNNDTDHDFLTDPIETEIDGEWMKAKGTTLGADNGIGVATELAILADDSIEHGPIECLFTVDEETGLTGAFALKEGFMSGEILLNLDSEDEGELYIGCAGGIDTVAEFQYENEMTPISHLCFRITVKGLKGGHSGGDIHLGRGNANKILNRFLYQMMTTYQEDFHLYEFNGGNLRNAIPREASAVFSVPEHYKHDIRTALNVFTAEIENELHRVEPDLNILLETEPHRDWSIDSSTSYRLITSLYGCPHGVYAMSQDIPGLVETSTNLASVKMKPENTIRIETSQRSSILSSRDDIATTVRAVFRLAGAQVNWGEGYPGWKPNPDSEILKVAEESYKRLFGVDAKVKAIHAGLECGLFLDKYPALDMISFGPTLTGVHSPDERMHIPSVDKFWKHLLDVLAHIPAKN | soluble
MSLSEVDIAKADPAAASHPLLLNGDATVAQKNPGSVAENNLCSQYEEKVRPCIDLIDSLRALGVEQDLALPAIAVIGDQSSGKSSVLEALSGVALPRGSGIVTRCPLVLKLKKLVNEDKWRGKVSYQDYEIEISDASEVEKEINKAQNAIAGEGMGISHELITLEISSRDVPDLTLIDLPGITRVAVGNQPADIGYKIKTLIKKYIQRQETISLVVVPSNVDIATTEALSMAQEVDPEGDRTIGILTKPDLVDKGTEDKVVDVVRNLVFHLKKGYMIVKCRGQQEIQDQLSLSEALQREKIFFENHPYFRDLLEEGKATVPCLAEKLTSELITHICKSLPLLENQIKETHKRITEELQKYGVDIPEDENEKMFFLIDKINAFNQDITALMQGEETVGEEDIRLFTRLRHEFHKWSTIIENNFQEGHKILSRKIQKFENQYRGRELPGFVNYRTFETIVKQQIKALEEPAVDMLHTVTDMVRLAFTDVSIKNFEEFFNLHRTAKSKIEDIRAEQEREGEKLIRLHFQMEQIVYCQDQVYRGALQKVREKELEEEKKKKSWDFGAFQSSSATDSSMEEIFQHLMAYHQEASKRISSHIPLIIQFFMLQTYGQQLQKAMLQLLQDKDTYSWLLKERSDTSDKRKFLKERLARLTQARRRLAQFPGEGHHHHHH | soluble
MEYRLKAYYREGEKPSALRRAGKLPGLMYNRHLNRKVYVDLVEFDKVFRQASIHHVIVLELPDGQSLPTLVRQVNLDKRRRRPEHVDFFVLSDEPVEMYVPLRFVGTPAGVRAGGVLQEIHRDILVKVSPRNIPEFIEVDVSGLEIGDSLHASDLKLPPGVELAVSPEETIAAVVPPEDVEKLAEEAAAEVAEPEVIKKGKEEEEE | soluble
MQHYLHIRPAPSDNLPLVDLIEHPDPIFDPKEKDLNETLLRSLLGGHYDPGFMATSPPEDRPGGGGGAAGGAEDLAELDQLLRQRPSGAMPSEIKGLEFSEGLAQGKKQRLSKKLRRKLQMWLWSQTFCPVLYAWNDLGSRFWPRYVKVGSCFSKRSCSVPEGMVCKPSKSVHLTVLRWRCQRRGGQRCGWIPIQYPIISECKCSC | soluble
GDTKEQRILNHVLQHAEPGNAQSVLEAIDTYCEQKEWAMNVGDKKGKIVDAVIQEHQPSVLLELGAYCGYSAVRMARLLSPGARLITIEINPDCAAITQRMVDFAGMKDKVTLVVGASQDIIPQLKKKYDVDTLDMVFLDHWKDRYLPDTLLLEECGLLRKGTVLLADNVICPGAPDFLAHVRGSSCFECTHYQSFLEYREVVDGLEKAIYKGP | soluble
MDYTKYLAGRANWIKGSALADVMKKASELQKKGVKLISLAAGDPDPELIPRAVLGEIAKEVLEKEPKSVMYTPANGIPELREELAAFLKKYDHLEVSPENIVITIGGTGALDLLGRVLIDPGDVVITENPSYINTLLAFEQLGAKIEGVPVDNDGMRVDLLEEKIKELKAKGQKVKLIYTIPTGQNPMGVTMSMERRKALLEIASKYDLLIIEDTAYNFMRYEGGDIVPLKALDNEGRVIVAGTLSKVLGTGFRIGWIIAEGEILKKVLMQKQPIDFCAPAISQYIALEYLKRGYFEKYHLEGALLGYKEKRDIMLKALENHLPNAEFTKPIAGMFVMFFLPEGADGISFANELMEREGVVVVPGKPFYTDESGKNAIRLNFSRPSKEEIPIGIKKLAKLYKEKFGE | soluble
MKKDILEKGAILQRDRETYAIAPHIPGGITDTATLRKLCDVADKYGVKELKLTSAQRIALFGVKEEDLDAIWSDLDQQPGAAIGLCVRSVKICPGTTWCKRGVQDSVSLGLKIDAIYHAMELPNKMKMGISGCMLNCAETMLKDVGVVGTPKGWRIYVGGNAGARPRIGDLLVELGPDEDKVLAVIADLVEWYRSSGSEQRLGRVVEQMGFDAFKTAVLGAKATP | not soluble
MKSIYITGYMGAGKTTIGKALSKELHMDVVDTDQKIEEKQGKVIRDIFAEEGEMAFREYESEMLCSLPVDNVIITTGGGIVEREENRKWMKENGTVVYLYCDPHVIAERLREDTTRPLFQKKDIDAFVTKFESRRAYYEEAHIHIDTTNKSVKQIMNELKEKINE | not soluble
MGSDKIHHHHHHMPIDLREFYQASDPSRTLFVNNSSDGKYYIDFSSVRGGDILGKLKQKITFFKPNEPTCTLFTGHIGCGKSTELLRLQAELEKLGFHVVYFESSDDLEMTDVDIADVLLAIARRVSQSLDKIILESPNKFNELLQGAWKVLNSEVTGVKVKVPNVGDFGVTSEKEKLSLSVGIGEITAKMKNDPTLREKLNQYLAPQKTKLLEAINQELLEPAIAKLKQQGKNGLVVIVDNLDRIDNRAKPWGRPQQEYLFVDQGEFLTKLNCHLIYTMPLSLKFSNDYGMLTQRFPEDPKVLPMVPVHWSDGSLHAQGMALMQQMVLARAFPDMTPEERLNKVTEIFDSAASLERLCQMSGGHVRDVLRLLNTWIMEEMSLPLTRDTLEQVIRSRQNEIMLPISEDEWQLLRHVKEKKKVSDDHGYQKLIRSRFVFEYRDCGESWFDVNPVLAEAKELQ | not soluble
MGRVYYGGVERTYLYRGRILNLALEGRYEIVEHKPAVAVIALREGRMLFVRQMRPAVGLAPLEIPAGLIEPGEDPLEAARRQLAEETGLSGDLTYLFSYFVSPGFTDEKTHVFLAENLKEVEAHPDEDEAIEVVWMRPEEALERHQRGEVEFSATGLVGVLYYHAFLRGR | soluble
MSLLFNTEDLKAIFQEVSLNPSDRLVCNNSNTIYLWQDNILRVQSDHETQYRSYNVELPFVPEQMVISPSGGLVAFHANSELYVMEVNEQSRLRKHFNTSLGIKKLLWHPLATYGLSFVILHDDSTIRIYDLEDLEPESITVFNRKSRSFGLSDHVESVCDIAFDPTGLTLYLLSSFNYCDIYAIHPCLPKNFSLRSNDTSNVTSRTKNGSLADYMLHKSLSLYNSLDKQLKLISGSDPDVESDYLTLKHDLLKQIQFFDNYKKNDGIDTFTSKAIRNSVPQGPFIIKKFPTALNAKEVTGLTIIPVGERLGLLNLQFIDGTNVVLFSDSEIVMSWSLRSNTTFNNLSVITMFNAKGQCQLLNSSEPKLVFTGDSSTTIMEMPWLEPLAQCIRLHDFSIIDDVKFENKIRTVSGTFLGVLSTLSGDILYNGNSFKVIESNDKSTTQKPINRTDEVKYTYKPSLPTSGKELDMLLTKYKTEANGFISGIPDSLAPLPLKNEGHHHHHH | soluble
MKIALIGATGHVGHYFLNEALQRGHAVTALVRDPSKLAARDGLCVVQADVSDPAQVASAVAGHEVVISAFNGGWGSADLRARHAAGSQAILDGVKRSGVPRLLVLGGAGSLEIAPGQRLVDSPEFPEQWKQGALGAADALDQLRGEQRLDWVFLSPAMLLEPGQRSGKFRLGGDQVLFDAKGESRISLEDLAVAMLDEAEQPRHHRQRFTVAYLEHHHHHH | soluble
